Consider 3 molecules from PMC7031066.

For data set [1], the target named is T1, PeWRKY1 (Populus euphratica, UniProt A0AAJ6U0E7 1-595). The experiment in a line: EMSA.
The target of data set [2] is T1, PeWRKY1. The experiment in a line: competition.
Data set [3] concerns the target T1, PeWRKY1. As to the kind of experiment: competition. This is another data set of the same source.

B1: PeHA1 promoter W-box probe (dsDNA)
DNA 1: CCCTATCGGGCAAGATTTGACCCGCCCGAGTTGATCCCTC
DNA 2: GAGGGATCAACTCGGGCGGGTCAAATCTTGCCCGATAGGG
Consider B1, for which, in the data set with PeWRKY1 [1], the binding result is recorded as “binds”.

B2: PeHA1 promoter W-box unlabeled competitor (dsDNA)
DNA 1: CCCTATCGGGCAAGATTTGACCCGCCCGAGTTGATCCCTC
DNA 2: GAGGGATCAACTCGGGCGGGTCAAATCTTGCCCGATAGGG
With B2, in the data set with PeWRKY1 [2], the binding result is listed as “binds”.

B3: W-box mutant probe (TTGACC to TTAGCC) (dsDNA)
DNA 1: CCCTATCGGGCAAGATTTAGCCCGCCCGAGTTGATCCCTC
DNA 2: GAGGGATCAACTCGGGCGGGCTAAATCTTGCCCGATAGGG
Regarding B3, in the data set with PeWRKY1 [3], the binding result is “no binding”.
